The series in a line: self-splicing fitness, log relative to wild type (ln ratio); higher = more splicing; Tetrahymena group I intron in knt gene, E. coli kanamycin selection, DiMSum; sequences stand for … in CUCUCU…GGAGGGAAAAGUUAUCAGGCAUGCACCUGGUAGCUAGUCUUUAAACCAAUAGAUUGCAUCGGUUUAAAAGGCAAGACCGUCAAAUUGCGGGAAAGGGGUCAACAGCCGUUCAGUACCAAGUCUCAGGGGAAACUUUGAGAUGGCCUUGCAAAGGGUAUGGUAAUAAGCUGACGGACAUGGUCCUAACCACGCAGCCAAGUCCUAAGUCAACAGAUCUUCUGUUGAUAUGGAUGCAGUUCACAGACUAAAUGUCGGUCGGGGAAGAUGUAUUCUUCUCAUAAGAUAUAGUCGGACCUCUCCUUAAUGGGAGCUAGCGGAUGAAGUGAUGCAACACUGGAGCCGCUGGGAACUAAUUUGUAUGCGAAAGUAUAUUGAUUAGUUUUGGAGUACUCGUGGUCG
A digest of the protocol:
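Fitness was computed with DiMSum as the error-weighted combination of replicate fold changes, kanamycin versus none, each normalised to wild type. The library randomised all eight intron nucleotides of the P1ex region, with the intron placed in the knt kanamycin-resistance gene on pET-22b(+) in E. coli BL21(DE3). Six replicate transformations were grown overnight at 37°C or 30°C on LB agar with or without 25 μg/mL kanamycin, plus 100 μg/mL carbenicillin, 50 μM IPTG and 0.2% rhamnose. Pooled colonies were amplicon-sequenced on an Illumina HiSeq 2500.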

± gives the uncertainty stated by the source.

With GAAAAGCAAUAUUACGUCGA, the “self-splicing fitness (ln)” value was -1.14 ± 0.088 (30 °C) and -0.0848 ± 0.12 (37 °C).
GAUGAGCAAUAUUACGGAAA: the “self-splicing fitness (ln)” value (37 °C) was -2.2 ± 0.31.
UAAGAGCAAUAUUACGGCCU: the “self-splicing fitness (ln)” value (30 °C) was -1.36 ± 0.47.
As to UAUAAGCAAUAUUACGCCUG, the “self-splicing fitness (ln)” value (30 °C) is -0.378 ± 0.13 and the “self-splicing fitness (ln)” value (37 °C) stood at 0.297 ± 0.16.
With CGGGAGCAAUAUUACGACGU, the “self-splicing fitness (ln)” value was -3.47 ± 0.33 (30 °C) and -1.16 ± 0.18 (37 °C).
On to UGACAGCAAUAUUACGAAGU, for which the “self-splicing fitness (ln)” value (30 °C) is -3.26 ± 0.2 and the “self-splicing fitness (ln)” value (37 °C) was -2.91 ± 0.28.
Turning to AAGAAGCAAUAUUACGAAGC, the “self-splicing fitness (ln)” value by setting is: (30 °C) -3.02 ± 0.18; (37 °C) -2.43 ± 0.28.
For UACCAGCAAUAUUACGCGCC the same measures were -1.46 ± 0.12 and -1.1 ± 0.2.
As to GAUAAGCAAUAUUACGUGGA, the “self-splicing fitness (ln)” value is -3.96 ± 0.38 (30 °C) and -2.55 ± 0.17 (37 °C).
CCUGAGCAAUAUUACGGUGG: the “self-splicing fitness (ln)” value was -3.67 ± 0.37 (30 °C) and -1.4 ± 0.2 (37 °C).
As to UUUCAGCAAUAUUACGCGAG, the “self-splicing fitness (ln)” value was -1.16 ± 0.14 (30 °C) and 0.301 ± 0.15 (37 °C).
Regarding GAUCAGCAAUAUUACGGCGU, the “self-splicing fitness (ln)” value by setting is: (30 °C) -0.292 ± 0.086; (37 °C) 0.2 ± 0.1.
In the case of ACCUAGCAAUAUUACGCAGA, the “self-splicing fitness (ln)” value reads like this: (30 °C) -2.23 ± 0.09; (37 °C) -1.11 ± 0.082.
Turning to UCUUAGCAAUAUUACGGUCC, the “self-splicing fitness (ln)” value (30 °C) is -3.99 ± 0.29 and the “self-splicing fitness (ln)” value (37 °C) is -2.74 ± 0.43.
For ACAUAGCAAUAUUACGGUAC, the “self-splicing fitness (ln)” value reads like this: (30 °C) -4.24 ± 0.33; (37 °C) -2.51 ± 0.27.
For AGUAAGCAAUAUUACGGAAA the same measures were -3.26 ± 0.41 and -0.269 ± 0.23.
AUUAAGCAAUAUUACGUUGA: the “self-splicing fitness (ln)” value is, setting by setting: (30 °C) -2.67 ± 0.24; (37 °C) -1.95 ± 0.16.
For GUGUAGCAAUAUUACGCUGA, the “self-splicing fitness (ln)” value is, setting by setting: (30 °C) -1.22 ± 0.18; (37 °C) -1.58 ± 0.17.
As to CCUUAGCAAUAUUACGGGAC, the “self-splicing fitness (ln)” value (30 °C) was -3.96 ± 0.46.
Take GAACAGCAAUAUUACGACAC: the “self-splicing fitness (ln)” value (30 °C) is -0.422 ± 0.08 and the “self-splicing fitness (ln)” value (37 °C) turned out to be 0.0163 ± 0.1.
As to UUCAAGCAAUAUUACGUAGU, the “self-splicing fitness (ln)” value by setting is: (30 °C) -3.6 ± 0.22; (37 °C) -1.61 ± 0.2.
With CGAAAGCAAUAUUACGUUCC, the “self-splicing fitness (ln)” value by setting is: (30 °C) -2.1 ± 0.21; (37 °C) -0.586 ± 0.22.
Regarding CCCGAGCAAUAUUACGGGAC, the “self-splicing fitness (ln)” value by setting is: (30 °C) -3.05 ± 0.18; (37 °C) -1.89 ± 0.19.
Take AAUCAGCAAUAUUACGCCCA: the “self-splicing fitness (ln)” value was -0.426 ± 0.16 (30 °C) and 0.216 ± 0.21 (37 °C).
For GCCAAGCAAUAUUACGCCCA, the “self-splicing fitness (ln)” value is, setting by setting: (30 °C) -1.18 ± 0.1; (37 °C) -0.6 ± 0.12.
Take GGUCAGCAAUAUUACGCCGA: the “self-splicing fitness (ln)” value (37 °C) was -2.65 ± 0.48.
On to ACCUAGCAAUAUUACGUCCC, for which the “self-splicing fitness (ln)” value (30 °C) is -1.37 ± 0.26.
Take GUCAAGCAAUAUUACGCAAA: the “self-splicing fitness (ln)” value runs as follows: (30 °C) -1.99 ± 0.15; (37 °C) -1.46 ± 0.16.
On to CGAUAGCAAUAUUACGCCGC, for which the “self-splicing fitness (ln)” value (30 °C) is -3.37 ± 0.37 and the “self-splicing fitness (ln)” value (37 °C) was -1.3 ± 0.47.
For the sequence GAGGAGCAAUAUUACGUAUC, the “self-splicing fitness (ln)” value (30 °C) is -4.63 ± 0.42 and the “self-splicing fitness (ln)” value (37 °C) is -2.74 ± 0.33.
Consider AAGAAGCAAUAUUACGCCUG, for which the “self-splicing fitness (ln)” value is -0.11 ± 0.11 (30 °C) and -0.509 ± 0.14 (37 °C).
Consider CCGUAGCAAUAUUACGAGUC, for which the “self-splicing fitness (ln)” value (30 °C) is -2.86 ± 0.23.
On to UGGCAGCAAUAUUACGCGUU, for which the “self-splicing fitness (ln)” value reads like this: (30 °C) -1.6 ± 0.077; (37 °C) -0.555 ± 0.081.
As to GGCAAGCAAUAUUACGUUCA, the “self-splicing fitness (ln)” value (30 °C) was -0.364 ± 0.092 and the “self-splicing fitness (ln)” value (37 °C) was determined as 0.553 ± 0.11.
For CGGCAGCAAUAUUACGAACU the same measures were -1.15 ± 0.44 and -0.121 ± 0.34.

The record behind these values is the supplement of paper PMC7877785.
